Laboratory results taken from patent US10688197B2, “Non-alcoholic fatty liver regulator 14-3-3 protein” (Korea University Research and Business Foundation, priority 2015, dated 2020).

Assays:
PPARγ2 = biological target: T1, PPARγ2 (Homo sapiens, UniProt P37231); assay: aP2 promoter luciferase reporter, transcriptional activity of PPARγ2 in HEK-293T cells; format: cell-based; settings: for transcriptional activity of PPARγ2: overexpressed according to concentration, concentration-dependent manner, FIG. 1B/1C; for transcriptional activity of PPARγ2 (activity of the aP2 promoter): overexpression of 14-3-3 isoform proteins (0.5 μg), HEK-293T, 10 μM pioglitazone 24 hours, FIG. 1A
T1 construct: endogenous in cells; host or cells: HEK-293T
T1 sequence (P37231 1-505): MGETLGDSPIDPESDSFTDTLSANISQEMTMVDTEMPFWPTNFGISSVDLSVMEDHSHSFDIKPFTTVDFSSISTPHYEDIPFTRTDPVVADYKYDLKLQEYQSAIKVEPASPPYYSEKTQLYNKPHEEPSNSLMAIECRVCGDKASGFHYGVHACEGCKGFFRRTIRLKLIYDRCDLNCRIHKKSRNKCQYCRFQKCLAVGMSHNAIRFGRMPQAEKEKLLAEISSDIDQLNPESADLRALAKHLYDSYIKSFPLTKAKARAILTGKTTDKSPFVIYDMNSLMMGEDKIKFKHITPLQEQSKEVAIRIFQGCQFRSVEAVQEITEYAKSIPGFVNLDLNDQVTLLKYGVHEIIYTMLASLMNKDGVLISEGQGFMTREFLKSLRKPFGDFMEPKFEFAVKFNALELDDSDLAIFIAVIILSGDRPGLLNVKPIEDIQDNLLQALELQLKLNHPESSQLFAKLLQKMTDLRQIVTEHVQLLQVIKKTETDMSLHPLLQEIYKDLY
Procedure: The transcriptional activity of PPARγ2 plays a vital role in expression of liver diseases-associated proteins. Thus, the transcriptional activity of PPARγ2 was measured using an aP2 promoter regulated by PPARγ2, and the role of 7 types of 14-3-3 proteins was investigated.
For this, HEK-293T cells were seeded in a 12-well plate at a density of 1×10^5 cells per each well, and then transfected with an aP2 promoter construct (0.5 μg) and 14-3-3 isoform proteins (α, β, γ, δ, ε, ζ, η, θ) (0.5 μg) or si-14-3-3β and si-14-3-3γ siRNA (5 nM and 10 nM, Santa Cruz) using an E-fection plus reagent (Lugen). A ratio of DNA to the E-fection plus reagent was 1:2, and this method was performed according to a manufacturer's manual. After transfection, the corresponding cells were treated with 10 μM of pioglitazone (Pio, Santa Cruz) for 24 hours, washed with ice-cold PBS, and lysed using 80 μl/well of a reporter lysis buffer (Promega, Madison, Wis.), and the lysed cells were centrifuged at 10,000×g and 4° C. for 10 minutes to collect a supernatant, and luciferase activity was measured. As an instrument, Luminometer 20/20n (Turner Biosystems, Sunnyvale, Calif.) was used. For normalization, the cells were cotransfected with pSV40-β-galactosidase. For the collected supernatant, β-galactosidase activity was measured and the luciferase activity was revised, and the obtained values were plotted. At this time, a β-galactosidase enzyme analysis system (Promega, Madison, Wis.) was used, and analysis was performed using a DU530 spectrophotometer (Beckman Instruments, Palo Alto, Calif.).

[1] = biological target: T2, binding between PPARγ2 and 14-3-3β (Homo sapiens, UniProt P37231); assay: GST-pull down assay, binding between PPARγ2 and 14-3-3β (HEK-293T)
T2 construct: expressed in transfected cells; host or cells: HEK-293T
T2 sequence (P37231 1-505): T1 sequence (P37231 1-505)
T2 sequence (P31946 1-246 partner): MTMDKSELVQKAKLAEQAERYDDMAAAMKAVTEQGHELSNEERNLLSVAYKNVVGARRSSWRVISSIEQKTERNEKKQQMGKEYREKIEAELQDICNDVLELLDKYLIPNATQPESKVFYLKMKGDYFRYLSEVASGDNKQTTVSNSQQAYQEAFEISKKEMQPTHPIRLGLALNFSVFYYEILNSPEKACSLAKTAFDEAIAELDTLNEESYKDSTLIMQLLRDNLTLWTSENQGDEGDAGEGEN
Procedure: After transfection, […], washed with ice-cold PBS, and lysed using 500 μl/well of a lysis buffer (150 mM NaCl, 1 mM EDTA, 1% Nonidet P-40, 5% glycerol, 25 mM tris-HCl, pH 7.5, protease inhibitor added), and the lysed cells were centrifuged at 10,000×g and 4° C. for 10 minutes to extract proteins. Thereafter, 1,000 μg of the proteins was reacted with 20 μl of glutathione Sepharose 4B beads (GE Healthcare, Buckinghamshire, UK) for 6 hours, and then washing of the beads with 1 ml of ice-cold PBS was repeated 5 times, and the beads were boiled at 100° C. for 10 minutes, followed by 10% SDS-PAGE gel separation and western blotting. A ratio of GST antibodies (Santa Cruz) to Myc antibodies (self-production) was 1:3000. The detection of each protein was performed using West Pico ECL (Thermo scientific, Rockford, Ill.) and identified in a darkroom.
After transfection, […], washed with ice-cold PBS, and lysed using 500 μl/well of a lysis buffer (150 mM NaCl, 1 mM EDTA, 1% Nonidet P-40, 5% glycerol, 25 mM tris-HCl, pH 7.5, protease inhibitor added), and the lysed cells were centrifuged at 10,000×g and 4° C. for 10 minutes to extract proteins. […]

transcriptional activity of PPARγ2 (PPARγ2) | transcriptional activity of PPARγ2 (activity of the aP2 promoter) (PPARγ2) | binding between 14-3-3β and PPARγ2 ([1]; expression amount of 14-3-3γ increased (HA-14-3-3γ DNA 2 and 4 μg), FIG. 5A) | binding between PPARγ2 and 14-3-3β ([1]; 200 μM oleic acid 72 hours, FIG. 8A) | Compound
increased | increased |  |  | 14-3-3β: 14-3-3 isoform protein overexpressed by DNA transfection; increases the transcriptional activity of PPARγ2 by binding to PPARγ2
reduced | decreased | reduced |  | 14-3-3γ: 14-3-3 isoform protein overexpressed by DNA transfection; decreases the transcriptional activity of PPARγ2; proposed active ingredient
 |  |  | increased | CCCCCCCC/C=C\CCCCCCCC(=O)O [oleic acid]
